From US10919943B2, “Mutant proteins enabling agrochemical control of plant gene expression” (The Regents of the University of California, priority 2016, dated 2021)
Substitutions are numbered along the chain they refer to. In names and notes the source's numbering stands.

T1: PYR1 (Arabidopsis thaliana, UniProt O49686)
T1 construct: expressed in transfected cells; host or cells: S. cerevisiae strain Y190
T1 sequence (O49686 1-191): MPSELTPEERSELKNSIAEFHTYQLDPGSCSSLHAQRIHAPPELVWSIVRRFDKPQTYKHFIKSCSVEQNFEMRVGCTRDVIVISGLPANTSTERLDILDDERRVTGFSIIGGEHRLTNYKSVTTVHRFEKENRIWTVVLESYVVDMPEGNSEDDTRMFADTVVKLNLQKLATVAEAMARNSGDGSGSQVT

B1: E203T: HAB1 mutant (protein, listed as Arabidopsis thaliana)
chain: MEEMTPAVAMTLSLAANTMCESSPVEITQLKNVTDAADLLSDSENQSFCNGGTECTMEDVSELEEVGEQDLLKTLSDTRSGSSNVFDEDDVLSVVEDNSAVISEGLLVVDAGSELSLSNTAMEIDNGRVLATAIIVGESSIEQVPTAEVLIAGVNQDTNTSEVVIRLPDENSNHLVKGRSVYELDCIPLWGTVSIQGNRSEMTDAFAVSPHFLKLPIKMLMGDHEGMSPSLTHLTGHFFGVYDGHGGHKVADYCRDRLHFALAEEIERIKDELCKRNTGEGRQVQWDKVFTSCFLTVDGEIEGKIGRAVVGSSDKVLEAVASETVGSTAVVALVCSSHIVVSNCGDSRAVLFRGKEAMPLSVDHKPDREDEYARIENAGGKVIQWQGARVFGVLAMSRSIGDRYLKPYVIPEPEVTFMPRSREDECLILASDGLWDVMNNQEVCEIARRRILMWHKKNGAPPLAERGKGIDPACQAAADYLSMLALQKGSKDNISIIVIDLKAQRKFKTRT
B2: E203D: HAB1 mutant (protein, listed as Arabidopsis thaliana)
chain: B1 chain with T203D
B3: E203W: HAB1 mutant (protein, listed as Arabidopsis thaliana)
chain: B1 chain with T203W
B4: H245A: HAB1 mutant (protein, UniProt Q9CAJ0 23-511, looked up, variant H245A)
Protein phosphatase 2C 16: SPVEITQLKNVTDAADLLSDSENQSFCNGGTECTMEDVSELEEVGEQDLLKTLSDTRSGSSNVFDEDDVLSVVEDNSAVISEGLLVVDAGSELSLSNTAMEIDNGRVLATAIIVGESSIEQVPTAEVLIAGVNQDTNTSEVVIRLPDENSNHLVKGRSVYELDCIPLWGTVSIQGNRSEMEDAFAVSPHFLKLPIKMLMGDHEGMSPSLTHLTGHFFGVYDGAGGHKVADYCRDRLHFALAEEIERIKDELCKRNTGEGRQVQWDKVFTSCFLTVDGEIEGKIGRAVVGSSDKVLEAVASETVGSTAVVALVCSSHIVVSNCGDSRAVLFRGKEAMPLSVDHKPDREDEYARIENAGGKVIQWQGARVFGVLAMSRSIGDRYLKPYVIPEPEVTFMPRSREDECLILASDGLWDVMNNQEVCEIARRRILMWHKKNGAPPLAERGKGIDPACQAAADYLSMLALQKGSKDNISIIVIDLKAQRKFKTRT
B5: H245G: HAB1 mutant (protein, UniProt Q9CAJ0 23-511, looked up, variant H245G)
Protein phosphatase 2C 16: B4 Protein phosphatase 2C 16 with A223G
B6: H245E: HAB1 mutant (protein, UniProt Q9CAJ0 23-511, looked up, variant H245E)
Protein phosphatase 2C 16: B4 Protein phosphatase 2C 16 with A223E
B7: H245C: HAB1 mutant (protein, UniProt Q9CAJ0 23-511, looked up, variant H245C)
Protein phosphatase 2C 16: B4 Protein phosphatase 2C 16 with A223C
B8: H245S: HAB1 mutant (protein, UniProt Q9CAJ0 23-511, looked up, variant H245S)
Protein phosphatase 2C 16: B4 Protein phosphatase 2C 16 with A223S
B9: G246V: HAB1 mutant (protein, UniProt Q9CAJ0 23-511, looked up, variant G246V)
Protein phosphatase 2C 16: B4 Protein phosphatase 2C 16 with A223H, G224V
B10: H245D: HAB1 mutant (protein, UniProt Q9CAJ0 23-511, looked up, variant H245D)
Protein phosphatase 2C 16: B4 Protein phosphatase 2C 16 with A223D
B11: G246D: HAB1 mutant (protein, UniProt Q9CAJ0 23-511, looked up, variant G246D)
Protein phosphatase 2C 16: B4 Protein phosphatase 2C 16 with A223H, G224D
B12: H245R: HAB1 mutant (protein, UniProt Q9CAJ0 23-511, looked up, variant H245R)
Protein phosphatase 2C 16: B4 Protein phosphatase 2C 16 with A223R
B13: G246Q: HAB1 mutant (protein, UniProt Q9CAJ0 23-511, looked up, variant G246Q)
Protein phosphatase 2C 16: B4 Protein phosphatase 2C 16 with A223H, G224Q
B14: H245I: HAB1 mutant (protein, UniProt Q9CAJ0 23-511, looked up, variant H245I)
Protein phosphatase 2C 16: B4 Protein phosphatase 2C 16 with A223I
B15: G246Y: HAB1 mutant (protein, UniProt Q9CAJ0 23-511, looked up, variant G246Y)
Protein phosphatase 2C 16: B4 Protein phosphatase 2C 16 with A223H, G224Y
B16: H245Q: HAB1 mutant (protein, UniProt Q9CAJ0 23-511, looked up, variant H245Q)
Protein phosphatase 2C 16: B4 Protein phosphatase 2C 16 with A223Q
B17: H245T: HAB1 mutant (protein, UniProt Q9CAJ0 23-511, looked up, variant H245T)
Protein phosphatase 2C 16: B4 Protein phosphatase 2C 16 with A223T
B18: G246M: HAB1 mutant (protein, UniProt Q9CAJ0 23-511, looked up, variant G246M)
Protein phosphatase 2C 16: B4 Protein phosphatase 2C 16 with A223H, G224M
B19: H245F: HAB1 mutant (protein, UniProt Q9CAJ0 23-511, looked up, variant H245F)
Protein phosphatase 2C 16: B4 Protein phosphatase 2C 16 with A223F
B20: G246S: HAB1 mutant (protein, UniProt Q9CAJ0 23-511, looked up, variant G246S)
Protein phosphatase 2C 16: B4 Protein phosphatase 2C 16 with A223H, G224S
B21: G246T: HAB1 mutant (protein, UniProt Q9CAJ0 23-511, looked up, variant G246T)
Protein phosphatase 2C 16: B4 Protein phosphatase 2C 16 with A223H, G224T
B22: G246L: HAB1 mutant (protein, UniProt Q9CAJ0 23-511, looked up, variant G246L)
Protein phosphatase 2C 16: B4 Protein phosphatase 2C 16 with A223H, G224L
B23: H245V: HAB1 mutant (protein, UniProt Q9CAJ0 23-511, looked up, variant H245V)
Protein phosphatase 2C 16: B4 Protein phosphatase 2C 16 with A223V
B24: H245W: HAB1 mutant (protein, UniProt Q9CAJ0 23-511, looked up, variant H245W)
Protein phosphatase 2C 16: B4 Protein phosphatase 2C 16 with A223W
B25: H245M: HAB1 mutant (protein, UniProt Q9CAJ0 23-511, looked up, variant H245M)
Protein phosphatase 2C 16: B4 Protein phosphatase 2C 16 with A223M
B26: G246W: HAB1 mutant (protein, UniProt Q9CAJ0 23-511, looked up, variant G246W)
Protein phosphatase 2C 16: B4 Protein phosphatase 2C 16 with A223H, G224W
B27: H245N: HAB1 mutant (protein, UniProt Q9CAJ0 23-511, looked up, variant H245N)
Protein phosphatase 2C 16: B4 Protein phosphatase 2C 16 with A223N
B28: G246A: HAB1 mutant (protein, UniProt Q9CAJ0 23-511, looked up, variant G246A)
Protein phosphatase 2C 16: B4 Protein phosphatase 2C 16 with A223H, G224A
B29: G246P: HAB1 mutant (protein, UniProt Q9CAJ0 23-511, looked up, variant G246P)
Protein phosphatase 2C 16: B4 Protein phosphatase 2C 16 with A223H, G224P
B30: H245Y: HAB1 mutant (protein, UniProt Q9CAJ0 23-511, looked up, variant H245Y)
Protein phosphatase 2C 16: B4 Protein phosphatase 2C 16 with A223Y
B31: H245L: HAB1 mutant (protein, UniProt Q9CAJ0 23-511, looked up, variant H245L)
Protein phosphatase 2C 16: B4 Protein phosphatase 2C 16 with A223L
B32: G246C: HAB1 mutant (protein, UniProt Q9CAJ0 23-511, looked up, variant G246C)
Protein phosphatase 2C 16: B4 Protein phosphatase 2C 16 with A223H, G224C
B33: H245K: HAB1 mutant (protein, UniProt Q9CAJ0 23-511, looked up, variant H245K)
Protein phosphatase 2C 16: B4 Protein phosphatase 2C 16 with A223K
B34: G246N: HAB1 mutant (protein, UniProt Q9CAJ0 23-511, looked up, variant G246N)
Protein phosphatase 2C 16: B4 Protein phosphatase 2C 16 with A223H, G224N
B35: G246R: HAB1 mutant (protein, UniProt Q9CAJ0 23-511, looked up, variant G246R)
Protein phosphatase 2C 16: B4 Protein phosphatase 2C 16 with A223H, G224R
B36: H245P: HAB1 mutant (protein, UniProt Q9CAJ0 23-511, looked up, variant H245P)
Protein phosphatase 2C 16: B4 Protein phosphatase 2C 16 with A223P

Target: T1, PYR1
Assay: Yeast two hybrid of pACT-HAB1 site saturation mutants with pBD-PYR1 on 10 μM ABA, β-galactosidase staining
Type: cell-based
Set-up: key: x: Mutations in HAB1 that disrupt HAB1 interaction with PYR1
Conditions: S. cerevisiae Y190, 10 μM ABA; dead = lack of detectable staining in comparison to wild type control
Summary of the method: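 HAB1 (lacking three N-terminal residues) site-saturation mutants in pACT were co-transformed with pBD-PYR1 into S. cerevisiae Y190 and spotted on SD (-Leu,-Trp) with 10 μM ABA. After 2 days at 30 °C, chloroform-lysed colonies were stained for β-galactosidase; "dead" means no detectable staining versus wild-type pair.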

Molecule	Mutations in HAB1 that disrupt HAB1 interaction with PYR1
B1	x
B2	x
B3	x
B4	x
B5	x
B6	x
B7	x
B8	x
B9	x
B10	x
B11	x
B12	x
B13	x
B14	x
B15	x
B16	x
B17	x
B18	x

Molecule	Mutations in HAB1 that disrupt HAB1 interaction with PYR1
B19	x
B20	x
B21	x
B22	x
B23	x
B24	x
B25	x
B26	x
B27	x
B28	x
B29	x
B30	x
B31	x
B32	x
B33	x
B34	x
B35	x
B36	x
